B1: Isoform 2 of Bardet-Biedl syndrome 7 protein (Homo sapiens), Q8IWZ6-2 (parent)
chain: MDLILNRMDYLQVGVTSQKTMKLIPASRHRATQKVVIGDHDGVVMCFGMKKGEAAAVFKTLPGPKIARLELGGVINTPQEKIFIAAASEIRGFTKRGKQFLSFETNLTESIKAMHISGSDLFLSASYIYNHYCDCKDQHYYLSGDKINDVICLPVERLSRITPVLACQDRVLRVLQGSDVMYAVEVPGPPTVLALHNGNGGDSGEDLLFGTSDGKLALIQITTSKPVRKWEIQNEKKRGGILCIDSFDIVGDGVKDLLVGRDDGMVEVYSFDNANEPVLRFDQMLSESVTSIQGGCVGKDSYDEIVVSTYSGWVTGLTTEPIHKESGPGEELKINQEMQNKISSLRNELEHLQYKVLQERENYQQSSQSSKAKSAVPSFGINDKFTLNKDDASYSLILEVQTAIDNVLIQSDVPIDLLDVDKNSAVVSFSSCDSESNDNFLLATYRCQADTTRLELKIRSIEGQYGTLQAYVTPRIQPKTCQVRQYHIKPLSLHQRTHFIDHDRPMNTLTLTGQFSFAEVHSWVVFCLPEVPEKPPAGECVTFYFQNTFLDTQLESTYRKGEGVFKSDNISTISILKDVLSKEATKRKINLNISYEINEVSVKHTLKLIHPKLEYQLLLAKKVQLIDALKELQIHEGNTNFLIPEYHCILEEADHLQEEYKKQPAHLERLYG
partner: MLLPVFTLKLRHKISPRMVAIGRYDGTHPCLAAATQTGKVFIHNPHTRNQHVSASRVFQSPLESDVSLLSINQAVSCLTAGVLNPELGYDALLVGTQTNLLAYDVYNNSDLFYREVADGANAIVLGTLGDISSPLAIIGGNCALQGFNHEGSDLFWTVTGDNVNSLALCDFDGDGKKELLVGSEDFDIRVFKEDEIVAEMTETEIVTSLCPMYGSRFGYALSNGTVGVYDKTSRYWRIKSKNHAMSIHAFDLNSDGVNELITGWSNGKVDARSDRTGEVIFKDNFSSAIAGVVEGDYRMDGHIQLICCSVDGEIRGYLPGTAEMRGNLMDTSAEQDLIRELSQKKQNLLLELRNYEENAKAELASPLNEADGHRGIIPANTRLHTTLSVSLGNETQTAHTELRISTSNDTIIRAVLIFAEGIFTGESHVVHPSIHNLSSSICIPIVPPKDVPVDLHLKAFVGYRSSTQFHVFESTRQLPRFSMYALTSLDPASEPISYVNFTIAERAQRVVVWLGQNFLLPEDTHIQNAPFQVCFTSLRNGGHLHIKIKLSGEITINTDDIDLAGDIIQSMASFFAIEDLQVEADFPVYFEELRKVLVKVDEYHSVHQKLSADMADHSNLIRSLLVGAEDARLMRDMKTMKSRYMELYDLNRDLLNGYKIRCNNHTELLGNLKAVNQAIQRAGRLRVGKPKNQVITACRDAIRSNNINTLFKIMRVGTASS

Variants of: B1
Details: with bbs2_human BBS2, Q9BXC9

| Variant | effect of a mutation on the interaction |
| --- | --- |
| D419E | with no effect |
| D419K | with no effect |
| D419A | with no effect |
| T473K | with no effect |
| T473A | with no effect |
| T473E | with no effect |
| I458Q | disrupting interaction strength |
| I458A | disrupting interaction strength |
| I458E | disrupting interaction strength |
| I458K | disrupting interaction strength |
| L418E | with no effect |
| L418A | with no effect |
| L418K | with no effect |
| F429E | with no effect |
| F429A | with no effect |
| F429K | with no effect |
| Q464E | with no effect |
| Q464A | with no effect |
| Q464K | with no effect |
| V427A | with no effect |
| V427K | with no effect |
| V427E | with no effect |
| P474A | with no effect |
| P474E | disrupting interaction strength |
| P474K | disrupting interaction strength |
| T452E | with no effect |

| Variant | effect of a mutation on the interaction |
| --- | --- |
| T452A | with no effect |
| T452K | with no effect |
| D450A | with no effect |
| D450K | with no effect |
| D450E | with no effect |
| T467K | with no effect |
| T467A | with no effect |
| T467E | with no effect |
| L442K | with no effect |
| L442A | with no effect |
| L442E | with no effect |
| L442P | disrupting interaction strength |
| D421A | with no effect |
| D421E | with no effect |
| D421K | with no effect |
| S431E | with no effect |
| S431A | with no effect |
| S431K | with no effect |
| N437A | with no effect |
| N437K | with no effect |
| N437E | with no effect |
| G463K | with no effect |
| G463E | with no effect |
| G463A | with no effect |
| S430E | with no effect |
| S430K | with no effect |

| Variant | effect of a mutation on the interaction |
| --- | --- |
| S430A | with no effect |
| S428A | with no effect |
| S428K | with no effect |
| S428E | with no effect |
| R475A | disrupting interaction strength |
| R475E | with no effect |
| R475K | with no effect |
| C447K | with no effect |
| C447A | with no effect |
| C447Y | disrupting interaction strength |
| C447E | with no effect |
| S424A | with no effect |
| S424E | with no effect |
| S424K | with no effect |
| I461A | with no effect |
| I461K | with no effect |
| I461E | with no effect |
| K457A | with no effect |
| K457E | with no effect |
| L454K | with no effect |
| L454A | with no effect |
| L454E | with no effect |
| Y465K | with no effect |
| Y465E | with no effect |
| Y465A | with no effect |
| L468E | with no effect |

| Variant | effect of a mutation on the interaction |
| --- | --- |
| L468A | with no effect |
| L468P | disrupting interaction strength |
| L468K | with no effect |
| Q469E | with no effect |
| Q469A | disrupting interaction strength |
| Q469K | with no effect |
| L441E | with no effect |
| L441K | with no effect |
| L441A | with no effect |
| S434A | with no effect |
| S434K | with no effect |
| S434E | with no effect |
| E435A | with no effect |
| E435K | with no effect |
| R446A | with no effect |
| R446E | with no effect |
| R446K | with no effect |
| Q448A | with no effect |
| Q448K | disrupting interaction strength |
| Q448E | with no effect |
| T444E | with no effect |
| T444A | with no effect |
| T444K | with no effect |
| D433E | with no effect |
| D433A | with no effect |
| D433K | with no effect |

| Variant | effect of a mutation on the interaction |
| --- | --- |
| R453E | with no effect |
| R453A | with no effect |
| R453K | with no effect |
| V472K | with no effect |
| V472E | disrupting interaction strength |
| V472A | with no effect |
| V472M | disrupting interaction strength |
| S460K | with no effect |
| S460A | with no effect |
| S460E | with no effect |
| D438E | with no effect |
| D438K | with no effect |
| D438A | with no effect |
| T451K | with no effect |
| T451A | with no effect |
| T451E | with no effect |
| L417E | with no effect |
| L417K | with no effect |
| L417A | with no effect |
| E462K | with no effect |
| E462A | with no effect |
| N439E | with no effect |
| N439K | with no effect |
| N439A | disrupting interaction strength |
| Y445E | with no effect |
| Y445A | with no effect |

| Variant | effect of a mutation on the interaction |
| --- | --- |
| Y445K | with no effect |
| E455K | disrupting interaction strength |
| E455A | with no effect |
| G466E | disrupting interaction strength |
| G466D | disrupting interaction strength |
| G466Y | disrupting interaction strength |
| G466K | with no effect |
| G466A | with no effect |
| N423A | with no effect |
| N423K | with no effect |
| N423E | with no effect |
| K422E | with no effect |
| K422A | with no effect |
| A449T | disrupting interaction strength |
| A449E | with no effect |
| A449K | with no effect |
| A425E | with no effect |
| A425K | with no effect |
| Y471K | with no effect |
| Y471E | with no effect |
| Y471A | with no effect |
| C432K | with no effect |
| C432E | with no effect |
| C432A | with no effect |
| A470K | with no effect |
| A470E | with no effect |

| Variant | effect of a mutation on the interaction |
| --- | --- |
| A443K | with no effect |
| A443E | disrupting interaction strength |
| F440E | with no effect |
| F440K | with no effect |
| F440A | with no effect |
| V420A | with no effect |
| V420E | with no effect |
| V420K | with no effect |
| S436K | with no effect |
| S436E | with no effect |
| S436A | with no effect |
| V426K | with no effect |
| V426E | with no effect |
| V426A | with no effect |
| L456E | with no effect |
| L456K | with no effect |
| L456A | with no effect |
| R459E | with no effect |
| R459K | with no effect |
| R459A | with no effect |

Variants of: B1
Details: with bbs2_human BBS2, Q9BXC9
Remark: another data set of the same source

| Variant | effect of a mutation on the interaction |
| --- | --- |
| I458E | with no effect |

— IntAct's records for PubMed 29039417
